In patent publication US20240352143A1 (Incyte, published 2024):

B1: CL25_hu_8-5 (antibody, V domains shown)
VH: QVQLVQSGAEVKKPGASVKVSCKASGYTFTSYGLSWVRQATGQGLEWMGEIYPGSGNTYYNEKFKGRVTMTRNTSISTAYMELSSLRSEDTAVYYCARYDYLGSSYGFDYWGAGTTVTVSS
VL: DIVMTQSPDSLAVSLGERATINCKASQDVSTAVAWYQQKPGQPPKLLIYSASYRYSGVPDRFSGSGSGTDFTLTISSLQAEDVAVYYCQQHYNTPYTFGGGTKLEIK
notes: Humanized CL25 variant
B2: HzCL25 (antibody, human IgG1, kappa, N297A, V domains shown)
VH: EVQLVQSGAEVKKPGESLKISCKGSGYTFTSYGLSWVRQMPGKGLEWMGEIYPGSGNTYYNEKFKGQVTISADKSISTAYLQWSSLKASDTAMYYCARYDYLGSSYGFDYWGAGTTVTVSS
VL: DIVMTQSPDSLAVSLGERATINCKASQDVSTAVAWYQQKPGQPPKLLIYSASYRYSGVPDRFSGSGSGTDFTLTISSLQAEDVAVYYCQQHYNTPYTFGGGTKLEIKR
notes: Humanized IgG1/kappa with N297A (EU); also called HzCL25 IgG; humanized CL25

What was measured:
[1] = biological target: T1, cell surface CD73 on MDA-MB-231 and A375 cells (human, UniProt P21589 27-549); test: flow cytometry on MDA-MB-231 cells, antibody 30 min on ice, PE-conjugated secondary antibody, GMFI
T1 construct: A375: moderate level; also called cellular CD73
T1 sequence: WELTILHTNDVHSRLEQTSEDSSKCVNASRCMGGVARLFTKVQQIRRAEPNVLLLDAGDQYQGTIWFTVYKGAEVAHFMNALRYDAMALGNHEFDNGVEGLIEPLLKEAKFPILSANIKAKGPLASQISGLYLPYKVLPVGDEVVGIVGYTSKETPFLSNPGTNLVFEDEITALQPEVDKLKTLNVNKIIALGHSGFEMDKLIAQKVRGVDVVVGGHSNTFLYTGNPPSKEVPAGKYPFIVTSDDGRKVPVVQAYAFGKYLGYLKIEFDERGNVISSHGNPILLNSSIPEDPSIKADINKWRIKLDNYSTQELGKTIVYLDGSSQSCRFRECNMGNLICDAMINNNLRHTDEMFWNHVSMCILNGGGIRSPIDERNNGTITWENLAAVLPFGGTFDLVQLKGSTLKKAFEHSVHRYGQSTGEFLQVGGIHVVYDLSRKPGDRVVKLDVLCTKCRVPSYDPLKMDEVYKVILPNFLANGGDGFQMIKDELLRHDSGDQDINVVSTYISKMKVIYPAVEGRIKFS
Procedure: The cells were stained with the indicated concentration of antibodies for 30 minutes on ice (FIG. 2A and FIG. 2B). Next, the cells were washed and stained using goat anti-mouse secondary conjugated to phycoerythrin (PE) for 30 minutes on ice. The cells were then washed and analyzed by flow cytometry. Geometric mean fluorescence intensity (GMFI) of CD73 staining was graphed (FIG. 2A and FIG. 2B).

recombinant human CD73 = biological target: T2, recombinant human CD73 (human, UniProt P21589 27-549); test: enzyme inhibition assay with recombinant full length CD73, adenosine by LC-MS, mixed-inhibition model
T2 construct: Soluble recombinant CD73 (BPS Bioscience stock in the SPR); also called rhuCD73; human CD73, open conformation
T2 sequence: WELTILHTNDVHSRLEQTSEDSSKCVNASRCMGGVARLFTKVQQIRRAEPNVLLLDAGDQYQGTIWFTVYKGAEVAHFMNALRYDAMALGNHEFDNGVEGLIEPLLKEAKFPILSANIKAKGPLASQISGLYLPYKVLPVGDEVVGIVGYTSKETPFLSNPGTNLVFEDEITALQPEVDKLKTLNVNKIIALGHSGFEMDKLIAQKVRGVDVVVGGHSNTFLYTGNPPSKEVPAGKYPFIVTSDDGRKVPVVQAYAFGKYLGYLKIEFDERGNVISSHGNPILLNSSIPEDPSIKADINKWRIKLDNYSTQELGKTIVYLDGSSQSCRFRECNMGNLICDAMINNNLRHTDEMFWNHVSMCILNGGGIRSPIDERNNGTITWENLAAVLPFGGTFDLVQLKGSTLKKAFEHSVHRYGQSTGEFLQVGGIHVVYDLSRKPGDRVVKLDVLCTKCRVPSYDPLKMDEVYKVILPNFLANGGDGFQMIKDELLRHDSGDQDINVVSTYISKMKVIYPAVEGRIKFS
Procedure: Briefly, the inhibition potencies of the agents were measured in an enzyme assay using adenosine ¹³C₁₀, ¹⁵N₅ 5′-monophosphate sodium salt solution (650676, Sigma) as substrate and detecting product, adenosine by LC-MS. Antibody agents were serially diluted in buffer and a volume of 5 μL was transferred to a 96-well plate. 20 μL of 0.5 μM recombinant CD73 in assay buffer (25 mM Tris, 5 mM MgCl₂, 0.005% Brij35 pH 7.5) was added to the plate and pre-incubated for 2 hours at 25° C. The assay was initiated by the addition of a 25 μL solution containing AMP at various concentrations. The reactions were run for 0.5 hr at 25° C. and then quenched with 50 μL of methanol.

Binder | EC50 (read off the curve) [1] | Ki (recombinant human CD73)
B1 | ~0.06 µg/mL | –
B2 | – | 0.3 nM
